Here are results for 3 molecules from patent publication US9393309B2, “Self-gelatinizable nucleic acid” (Kyoto University, priority 2011, dated 2016).

The nature of data set [1]: Release of encapsulated OVA from gel. Format: physicochemical. To be noted: DNA 0.5 mM, OVA 2.5 μg/μl. How it is done: By controlling the nature and salt concentration of protruding ends of Tetrapodna, the change of the releasing rate of an encapsulated compound in a gel was examined. Specifically, Tetrapodna (4-18-18) (SEQ ID NOs.: 2, 4, 5 and 6) including a cohesive protruding end and Tetrapodna (4-18-18) (SEQ ID NOs.: 58, 59, 60 and 61) as a control including a non-cohesive protruding end were used. In an aqueous solution of Tetrapodna which had been prepared such that the DNA concentration was 0.5 mM, the NaCl concentration was adjusted to 5 mM or 150 mM. When the NaCl concentration was increased, egg albumin (OVA, concentration of 2.5 μg/μl) was added as an encapsulated substance to cause gelation, and then the percentage of OVA released from the gel with the passage of time was measured.

For data set [2], the system named is mouse dendritic cell DC2.4. The data set can be described thus: Stimulation of dendritic cells by gel. Format: cell-based. To be noted: gel brought into contact with DC2.4.
Data set [3] is described as follows: Percentage of remaining gels with the passage of time. The settings on record: DNA 0.5 mM. Format: physicochemical. As to the method: Gels were formed by adjusting the NaCl concentration at 150 mM in an aqueous solution containing Tetrapodna (12-14-14) (SEQ ID NOs.: 30, 31, 32 and 33) at a DNA concentration of 0.1 mM, 0.25 mM or 0.5 mM, and the percentage of the remaining gels was measured with the passage of time. The results are shown in a graph in the left upper side of FIG. 17.
Gels were formed in conditions at a certain DNA concentration (0.5 mM) and a certain NaCl concentration (150 mM), and the percentage of the remaining gels was measured with the passage of time by using Tetrapodna (respectively, SEQ ID NOs.: 2, 4, 5 and 6, SEQ ID NOs.: 18, 19, 20 and 21, SEQ ID NOs.: 22, 23, 24 and 25, SEQ ID NOs.: 26, 27, 28 and 29, as well as SEQ ID NOs.: 30, 31, 32 and 33) having various lengths of the cohesive protruding end (4, 6, 8, 10 or 12 bases). The results are shown in a graph in the left lower side of FIG. 17. […] When 12 hours had passed, the percentage of the remaining gels became about 50%.
Gels were formed by variously changing the NaCl concentrations (5 mM, 50 mM, 100 mM or 150 mM) of an aqueous solution containing Tetrapodna (12-14-14) (SEQ ID NOs.: 30, 31, 32 and 33) at a DNA concentration of 0.5 mM, and the percentage of the remaining gels was measured with the passage of time. The results are shown in a graph in the right upper side of FIG. 17. […] At a low salt concentration (5 mM), almost all the formed gels became in a sol state when about 6 hours had passed. When the salt concentration was increased to 50 mM, solation tendency was weakened, a change from a gel into a sol occurred moderately (about 40% when 12 hours had passed).
The percentage of the remaining gels was measured with the passage of time in the same manner as in (8-3) except that Tetrapodna (4-18-18) (SEQ ID NOs.: 2, 4, 5 and 6) was used instead of Tetrapodna (12-14-14) (SEQ ID NOs.: 30, 31, 32 and 33). The results are shown in a graph in the right lower side of FIG. 17. […] In (8-3), Tetrapodna (12-14-14) (the length of the cohesive protruding end is 12 bases) was used. In (8-4), Tetrapodna (4-18-18) (the length of the cohesive protruding end is 4 bases) was used.

A further data set deals with splenocytes. The data set can be described thus: IFN-γ production by splenocytes after immunization with OVA in gel. The format is in vivo, mouse. To be noted: 100 μg OVA + 100 μg DNA, spleen on Day 14, vs only OVA.
Data set [4] in a line: Temperature conditions for gel formation. The format is physicochemical. The settings on record: NaCl 150 mM. How it is done:
Furthermore, we investigated a possibility that temperature conditions are also involved in gelation. Tetrapodna (4-18-18) (SEQ ID NOs.: 2, 4, 5 and 6), Hexapodna (4-18-18) (SEQ ID NOs.: 2, 3, 4, 7, 9 and 10) and Tetrapodna (8-16-16) (SEQ ID NOs.: 22, 23, 24 and 25) were used to examine the temperature conditions for allowing a gel be present or a sol to be present by fixing the NaCl concentration at 150 mM and changing the DNA concentration variously.

Data set [5] is described as follows: Evaluation of gelation at various DNA concentrations and NaCl concentrations. The format is physicochemical. Set-up: key: ◯: the mark “∘” is given to cases in which gelation was observed; X: the mark “x” is given to cases of a solution state (sol-state). As to the method:
[…] The gel formation and the gel strength were measured by a gel strength analyzer (gel strength meter, Nakayamadenki Co., Ltd, Osaka).
Specifically, by changing the DNA concentrations of an aqueous solution of Tripodona (4-18-18) (X=4) (SEQ ID NOs.: 1, 2 and 3), Tetrapodna (4-18-18) (X=4) (SEQ ID NOs.: 2, 4, 5 and 6), Hexapodna (4-18-18) (X=4) (SEQ ID NOs.: 2, 3, 4, 7, 9 and 10) and Tetrapodna (8-16-16) (X=8) (SEQ ID NOs.: 22, 23, 24 and 25) as shown in the lines of Table 4, and by changing the NaCl concentration as shown in the rows of Table 4, whether or not a gel is formed at various DNA concentrations and NaCl concentrations was evaluated. The results are shown such that the mark “∘” is given to cases in which gelation was observed, and the mark “x” is given to cases of a solution state (sol-state).

Data set [6] in a line: Formation of hydrogel from nucleic acid units without ligase. To be noted: without DNA ligase. The format is physicochemical. How it is done: A NaCl solution was added to an ODN solution (polypodna) such that the final Na^+ concentration was 5 to 150 mM. The gel formation and the gel strength were measured by a gel strength analyzer (gel strength meter, Nakayamadenki Co., Ltd, Osaka).
A structure to be a hydrogel (a nucleic acid monomer and an estimated nucleic acid unit) in conditions at room temperature, at 5 mM to 150 mM sodium chloride concentration (150 mM is substantially physiological concentration), and not containing a DNA ligase was elucidated. […] For convenience, nucleic acid units estimated to be formed according to the number of nucleic acid monomers capable of constituting the nucleic acid unit were represented by xxxpodna (xxxpod-like structure forming nucleic acid, xxx is substituted by tri (3), tetra (4) and the like, according to the number of nucleic acid monomers capable of constituting the nucleic acid unit). In Table 2 described below, xxxpodna is an estimated nucleic acid unit, and each of xxx-Y-N is a nucleic acid monomer that can be a constituent element of the nucleic acid unit (xxxpodna) which is mentioned above thereof. When the descriptions of Ys are different from each other, different nucleic acid units can be formed. N denotes numbering of nucleic acid monomers constituting each of the estimated nucleic acid units.
Unlike (1-1) described above, gelation can be controlled by using a nucleic acid monomer including cohesive protruding ends which are not attached to themselves (that is, not palindrome sequence).

Data set [7] can be described thus: Gel formation in a living body after subcutaneous injection of sol. The format is in vivo. To be noted: total DNA 2 mM, NaCl 5 mM, back of mouse. The source says:
The hydrogel produced in Example 1 was able to be prepared in a sol state by appropriately adjusting conditions. Therefore, the hydrogel was able to be administered in a living body by injection. […] Thus, it was confirmed that a gel is formed in a living body only by preparing the hydrogel in accordance with the present invention in a sol state and administering the hydrogel to a living body.

The subject of data set [8] is RAW264.7 cells. The data set can be described thus: Release of TNF-α from RAW264.7 cells (ELISA). The settings on record: 0.5, 1 or 2 μg/ml, 8 hours. The format is cell-based, murine. As to the method:
In a RPMI1640 medium to which 10% heat inactivated FBS, 0.15% sodium bicarbonate, 100 units/ml penicillin, […] streptomycin and 2 mML-glutamine were added, murine macrophage-like RAW264.7 cells were proliferated in humidified air containing 5% CO2 at 37° C. Subsequently, cells were seeded on a 24-well or 96-well culture plate at a density of 5×10^5 cells/well, and cultured for 24 hours before use.
The RAW264.7 cells were seeded on a 24-well plate at a density of 2.5×10^5 cells/well, and incubated for 24 hours before treatment. Then, ssDNA, dsDNA, or several kinds of polypodnas diluted in 0.5 ml of Opti-MEM were added to the cells at a final concentration of 0.5, 1 or 2 μg/ml. The cells were incubated for 8 hours, the supernatant was recovered and stored at −70° C. before use. The concentrations of TNF-α and IL-6 in the supernatant were measured by Enzyme-Linked Immunosorbent Assay (ELISA) using an OptEIA™ set (Pharmingen, San Diego, Calif., USA).
The same experiment as in Example 22 was carried out except that each poolypodna preparation was prepared in the same manner as in Example 1 by using the sequences in Table 1. However, the added DNA was equal amount in each case.
In general terms: ELISA stands for enzyme-linked immunosorbent assay.

A short description of data set [9]: Melting temperature (Tm) from melting curve, absorbance at 260 nm. The format is physicochemical. To be noted: sodium concentration of 5 mM. How it is done:
Each DNA preparation was prepared in the same manner as in Example 1 by using the sequences in Table 1. The absorbance of polypodna or other DNA preparations at 260 nm was measured by using a Shimadzu UV-1600 PC spectrometer (Kyoto, Japan) equipped with a TMSPC-8 temperature controller 18. The melting temperature (Tm) was obtained from the melting curve at the sodium concentration of 5 mM in each preparation.

The subject of data set [10] is atopic dermatitis model mouse. As to the kind of experiment: Application to atopic dermatitis model mouse. Format: in vivo. The settings on record: vs Tetrapodna without cholesterol modification.
Data set [11] concerns RAW264.7 cells. The data set can be described thus: Uptake of cholesterol-modified Tetrapodna by cells. The format is cell-based. As to the method: In order to examine applicability of nucleic acid having a modifying group, Tetrapodna using cholesterol-modified DNA was prepared. […] Furthermore, uptake of each Tetrapodna by RAW264.7 cells was measured.

B1: Tetrapodna(4-18-18): four ODNs, SEQ ID NOs.: 2, 4, 5 and 6, 4-base cohesive protruding end, contains CpG motif (nucleic acid)
DNA 1: ACGTTCGACAGCGTCAACGTGAAACGTGAAGCGTCTGCGA
DNA 2: ACGTTCGCTGACGTTGCAGACATCACGTTGACGCTGTCGA
DNA 3: ACGTTCGCAGACGCTTCACGTTGCAGACAGACGTTGACGA
DNA 4: ACGTTCGTCAACGTCTGTCTGCTGTCTGCAACGTCAGCGA
modifications: unmodified DNA
In the case of B1, the “release of OVA from the gel” value in data set [1] (NaCl 5 mM) was “all OVA was released for a short time”. In addition, in [1] (NaCl 150 mM, 24 hours), the “percentage of OVA released” value is “about 60%”. For the same molecule, the “immunological stimulation of dendritic cell” value in data set [2] is “significantly immunologically stimulated a mouse dendritic cell”. Besides, the “percentage of the remaining gels with the passage of time” value in [3] (NaCl 150 mM) was “a gel became a sol with the passage of time”. Moreover, in data set [3] (NaCl 150 mM, 12 hours), the “percentage of the remaining gels” value was “about 50%”. Moreover, in [3] (NaCl 5, 50, 100 or 150 mM), the “percentage of the remaining gels, dependence on salt concentration” value is recorded as “as the salt concentration is higher, it tends to be present not in a sol but in a gel”. For the same molecule, in the data set on splenocytes, the “production of IFN-γ by splenocytes stimulated with OVA” value is listed as “remarkable increase in production amount of IFN-γ”. Moreover, the results for the “temperature at which gel is present” value in [4] (DNA concentration 0.4-0.5 mM) and in data set [4] (DNA concentration 0.6-0.8 mM) were “gel at 45 °C” and “gel at 55 °C”, respectively. For the same molecule, the “temperature at which sol is present” value in data set [4] (DNA concentration 0.4-0.5 mM) is “sol at 55 °C”; in data set [4] (DNA concentration 0.6-0.8 mM) it was “sol at 65 °C”. The gelation result is “◯” in [5] (Na+ 2 mM, DNA 0.8 mM); “X” in data set [5] (Na+ 20 mM, DNA 0.6 mM); “X” in data set [5] (Na+ 20 mM, DNA 0.7 mM); “◯” in data set [5] (Na+ 50 mM, DNA 0.6 mM); “◯” in [5] (Na+ 50 mM, DNA 0.7 mM); “X” in data set [5] (Na+ 100 mM, DNA 0.5 mM). The gelation result in data set [5] (Na+ 150 mM, DNA 0.4 mM) is given as “X”; in data set [5] (Na+ 150 mM, DNA 0.5 mM), “◯”. Also, the gel formation entry in data set [6] is “gels can be prepared”. Besides, in data set [7], the “gel formation in a living body” value is on record as “gelation occurred in a living body after administration”.

B2: dsDNA36: double strand of dsDNA36-1 and dsDNA36-2, SEQ ID Nos. 108 and 109 (nucleic acid)
chain 1: TCGCTGACGTTGCAGACATCACGTTGACGCTGTCGA
chain 2: TCGACAGCGTCAACGTGATGTCTGCAACGTCAGCGA
modifications: unmodified DNA
Regarding B2, in the data set with RAW264.7 cells [8], the TNF-α release entry is “the TNF-α release hardly occurred”. Further, the Tm in [9] turned out to be 66.5 °C.

B3: Chol-CpG DNA: Tetrapodna (SEQ ID NOs.: 2, 4, 5 and 6) which contains a cholesterol-modified nucleic acid monomer and a CpG motif (conjugate)
DNA 1: ACGTTCGACAGCGTCAACGTGAAACGTGAAGCGTCTGCGA
DNA 2: ACGTTCGCTGACGTTGCAGACATCACGTTGACGCTGTCGA
DNA 3: ACGTTCGCAGACGCTTCACGTTGCAGACAGACGTTGACGA
DNA 4: ACGTTCGTCAACGTCTGTCTGCTGTCTGCAACGTCAGCGA
modifications: DNA, phosphodiester; one monomer cholesterol-modified, strand and position not given here
Regarding B3, in data set [10] (applied to skin), the tissue transferability entry was “increased”. Further, the skin inflammation entry in data set [10] is “better suppressed”. Moreover, the “uptake by RAW264.7 cells” value with RAW264.7 cells [11] was “incorporated into RAW264.7 cells better than Tetrapodna as a control which does not have cholesterol modification”.
